According to the supplement of paper PMC7125110:
± gives the standard error. For some assays here: Fewer inactive variants are shown than the library holds.

B1: glmS ribozyme (parent)
chain: AUAAAAGCGCCAGAACUACAGAAAUGUAGUUGACGAGGAGGAGGUUUAUCGAAUUUUCGGCGGAUGCCUCCAAA

What was measured:
Details in all cases: with glucosamine-6-phosphate
[1] = variants of: B1; assay: kcat; higher = faster cleavage; RNA array
How it was run: (§1)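 Weighted Michaelis–Menten fits across concentrations supplied kcat and KM, based on kobs from one- or two-exponential decay fits to normalised per-tile medians. The data came from barcoded ribozyme variants transcribed in situ by E. coli RNA polymerase on sequenced MiSeq chips and tracked at 37 °C by a hybridised Cy3 probe. Glucosamine-6-phosphate (40 μM to 10 mM) in HEPES/KCl/Mg(OAc)2 buffer was flowed in.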

[2] = variants of: B1; assay: KM; higher = weaker cofactor use; RNA array
How it was run: as §1

[3] = variants of: B1; assay: self-cleavage kobs at 40 uM GlcN6P; higher = faster cleavage; RNA array
How it was run: as §1

[4] = variants of: B1; assay: self-cleavage kobs at 160 uM GlcN6P; higher = faster cleavage; RNA array
How it was run: as §1

[5] = variants of: B1; assay: self-cleavage kobs at 640 uM GlcN6P; higher = faster cleavage; RNA array
How it was run: as §1

[6] = variants of: B1; assay: self-cleavage kobs at 2500 uM GlcN6P; higher = faster cleavage; RNA array
How it was run: as §1

[7] = variants of: B1; assay: self-cleavage kobs at 10000 uM GlcN6P; higher = faster cleavage; RNA array
How it was run: as §1

## C11U U57A
[1]
  kcat: 1.44e-05 ± 2.1e-06 s⁻¹

## A12G U45A
[1]
  kcat: 0.00242 ± 0.00064 s⁻¹
[2]
  KM: 3500 ± 1300 µM
[3]
  self-cleavage kobs at 40 uM GlcN6P: 4.21e-05 ± 1.5e-05 s⁻¹
[4]
  self-cleavage kobs at 160 uM GlcN6P: 0.000103 ± 1.6e-05 s⁻¹
[5]
  self-cleavage kobs at 640 uM GlcN6P: 0.00041 ± 5.3e-05 s⁻¹
[6]
  self-cleavage kobs at 2500 uM GlcN6P: 0.000811 ± 0.00014 s⁻¹
[7]
  self-cleavage kobs at 10000 uM GlcN6P: 0.00207 ± 0.00031 s⁻¹

## A12G U45C
[1]
  kcat: 6.32e-05 ± 3.9e-06 s⁻¹
[2]
  KM: 2510 ± 620 µM
[6]
  self-cleavage kobs at 2500 uM GlcN6P: 3.29e-05 ± 1.6e-05 s⁻¹
[7]
  self-cleavage kobs at 10000 uM GlcN6P: 5.04e-05 ± 8e-06 s⁻¹

## A12G U45G
[1]
  kcat: 0.000591 ± 1.8e-05 s⁻¹
[2]
  KM: 5260 ± 300 µM
[5]
  self-cleavage kobs at 640 uM GlcN6P: 6.36e-05 ± 1.3e-05 s⁻¹
[6]
  self-cleavage kobs at 2500 uM GlcN6P: 0.000197 ± 4.2e-05 s⁻¹
[7]
  self-cleavage kobs at 10000 uM GlcN6P: 0.000386 ± 3.9e-05 s⁻¹

## A12U G41C
[1]
  kcat: 0.000373 ± 8.7e-05 s⁻¹
[2]
  KM: 1830 ± 770 µM
[4]
  self-cleavage kobs at 160 uM GlcN6P: 2.68e-05 ± 1.1e-05 s⁻¹
[5]
  self-cleavage kobs at 640 uM GlcN6P: 0.000108 ± 1.2e-05 s⁻¹
[6]
  self-cleavage kobs at 2500 uM GlcN6P: 0.000168 ± 2.7e-05 s⁻¹
[7]
  self-cleavage kobs at 10000 uM GlcN6P: 0.000373 ± 5e-05 s⁻¹

## C11U U47C
[1]
  kcat: 8.97e-05 ± 5.3e-06 s⁻¹
[2]
  KM: 1150 ± 290 µM
[5]
  self-cleavage kobs at 640 uM GlcN6P: 4.05e-05 ± 1.7e-05 s⁻¹
[6]
  self-cleavage kobs at 2500 uM GlcN6P: 5.91e-05 ± 8.5e-06 s⁻¹
[7]
  self-cleavage kobs at 10000 uM GlcN6P: 8.15e-05 ± 8.5e-06 s⁻¹

## A12U U54G
[1]
  kcat: 0.0434 ± 0.021 s⁻¹
[3]
  self-cleavage kobs at 40 uM GlcN6P: 0.00183 ± 0.00035 s⁻¹
[4]
  self-cleavage kobs at 160 uM GlcN6P: 0.00452 ± 0.00078 s⁻¹
[5]
  self-cleavage kobs at 640 uM GlcN6P: 0.0495 ± 0.012 s⁻¹
[6]
  self-cleavage kobs at 2500 uM GlcN6P: 0.0405 ± 0.019 s⁻¹
[7]
  self-cleavage kobs at 10000 uM GlcN6P: 0.0363 ± 0.0092 s⁻¹

## A12U A33U
[1]
  kcat: 0.000444 ± 0.0001 s⁻¹
[2]
  KM: 3790 ± 1500 µM
[5]
  self-cleavage kobs at 640 uM GlcN6P: 7.77e-05 ± 8.6e-06 s⁻¹
[6]
  self-cleavage kobs at 2500 uM GlcN6P: 0.00015 ± 1.6e-05 s⁻¹
[7]
  self-cleavage kobs at 10000 uM GlcN6P: 0.000348 ± 3.2e-05 s⁻¹

## A12G C67G
[1]
  kcat: 0.000322 ± 4.9e-06 s⁻¹
[2]
  KM: 1850 ± 62 µM
[4]
  self-cleavage kobs at 160 uM GlcN6P: 2.45e-05 ± 1.1e-05 s⁻¹
[5]
  self-cleavage kobs at 640 uM GlcN6P: 8.36e-05 ± 8.2e-06 s⁻¹
[6]
  self-cleavage kobs at 2500 uM GlcN6P: 0.000182 ± 1.7e-05 s⁻¹
[7]
  self-cleavage kobs at 10000 uM GlcN6P: 0.000273 ± 1.9e-05 s⁻¹

## G13A G32U
[1]
  kcat: 0.000303 ± 3.2e-05 s⁻¹
[2]
  KM: 3170 ± 600 µM
[5]
  self-cleavage kobs at 640 uM GlcN6P: 4.76e-05 ± 1e-05 s⁻¹
[6]
  self-cleavage kobs at 2500 uM GlcN6P: 0.000147 ± 2.3e-05 s⁻¹
[7]
  self-cleavage kobs at 10000 uM GlcN6P: 0.000221 ± 3.7e-05 s⁻¹

## A12C C16A
[1]
  kcat: 0.00127 ± 0.00038 s⁻¹
[2]
  KM: 4920 ± 2400 µM
[4]
  self-cleavage kobs at 160 uM GlcN6P: 6.12e-05 ± 1.6e-05 s⁻¹
[5]
  self-cleavage kobs at 640 uM GlcN6P: 0.000172 ± 2.7e-05 s⁻¹
[6]
  self-cleavage kobs at 2500 uM GlcN6P: 0.000339 ± 5.1e-05 s⁻¹
[7]
  self-cleavage kobs at 10000 uM GlcN6P: 0.000927 ± 9.9e-05 s⁻¹

## G13A A14G
[1]
  kcat: 0.00208 ± 0.00043 s⁻¹
[2]
  KM: 3430 ± 1000 µM
[3]
  self-cleavage kobs at 40 uM GlcN6P: 3.73e-05 ± 1.1e-05 s⁻¹
[4]
  self-cleavage kobs at 160 uM GlcN6P: 7.81e-05 ± 1.4e-05 s⁻¹
[5]
  self-cleavage kobs at 640 uM GlcN6P: 0.000393 ± 6.9e-05 s⁻¹
[6]
  self-cleavage kobs at 2500 uM GlcN6P: 0.000888 ± 0.00012 s⁻¹
[7]
  self-cleavage kobs at 10000 uM GlcN6P: 0.00151 ± 0.00023 s⁻¹

## A12C C70U C71U
[1]
  kcat: 0.000174 ± 1.1e-05 s⁻¹
[2]
  KM: 1270 ± 200 µM
[5]
  self-cleavage kobs at 640 uM GlcN6P: 6.04e-05 ± 1.5e-05 s⁻¹
[7]
  self-cleavage kobs at 10000 uM GlcN6P: 0.000154 ± 2.8e-05 s⁻¹

## A12U G66U
[1]
  kcat: 0.00516 ± 0.00082 s⁻¹
[2]
  KM: 1550 ± 380 µM
[3]
  self-cleavage kobs at 40 uM GlcN6P: 0.000146 ± 1.8e-05 s⁻¹
[4]
  self-cleavage kobs at 160 uM GlcN6P: 0.000589 ± 0.0001 s⁻¹
[5]
  self-cleavage kobs at 640 uM GlcN6P: 0.00128 ± 0.00014 s⁻¹
[6]
  self-cleavage kobs at 2500 uM GlcN6P: 0.00319 ± 0.00044 s⁻¹
[7]
  self-cleavage kobs at 10000 uM GlcN6P: 0.00479 ± 0.00055 s⁻¹
